According to the supplement of paper PMC12042874:
± gives the uncertainty stated by the source.

Experiment: amyloid nucleation score (Sup35N fusion, yeast selection) (log enrichment); library NNK2; higher = more nucleation; inactive = no reads after selection
How it was run: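 Nucleation score is defined as the DiMSum log enrichment of output over input reads, with centring on the mode score of non-aggregating sequences. A minimum of 100 input reads was required for each sequence. Reads came from Illumina sequencing of plasmid inserts from psi-negative yeast expressing Sup35N fused to peptides of 20 random codons, induced with 100 μM copper sulfate for 24 hours and grown 7 days at 30°C on medium lacking adenine and uracil.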

Substance | amyloid nucleation score
KVSWFVRIYMCEIRMRIGRS | 1.44 ± 0.33
KVWECLEAGNFGVDMRWCDR | 0.524 ± 0.31
KWIRDIRDLQTH | -0.275 ± 0.65
KWTFLRLILTMV | -0.511 ± 0.56
KWVGQLTVVMWLKCNPFCFE | 0.257 ± 0.64
KWVMRNIWDTYSKVGLQSST | -0.206 ± 0.39
KYCHLWCEKGMELSALSEAV | 0.001 ± 0.76
KYGDNSMYLMLLMVCYKGAC | -0.622 ± 1.1
KYGTSIVTHGAVKDAKYCCR | 3.44 ± 0.062
KYHRI | -0.721 ± 0.74
KYLRVDMVNMNAYKGHWEGS | 0.526 ± 0.66
KYNDGEFIVVIVGILAYAVV | -0.238 ± 0.34
LADTVIMGLGSTLFVYVYLI | 3.88 ± 0.077
LAGLALITIIDIFGDNGRMI | 3.2 ± 0.082
LAIVQ | -0.256 ± 0.42
LANYYTDSVRPSCGY | -0.022 ± 0.55
LAPLNSWKTY | -0.045 ± 0.56
LARACKIEAYFLLVHVSIMC | -0.174 ± 0.76
LASFGLRGVRQCQMNAE | 1.78 ± 0.15
LASPGTRFSFGSLVACGVVQ | -0.178 ± 0.35
LAWITKSMFLL | 0.672 ± 0.56
LAWLCRWGSVTYYCYSFGQV | -0.841 ± 0.62
LCACIELSNKMLLTFNSNVK | -0.517 ± 0.32
LCCGLFFFVRVY | 2.06 ± 0.091
LCCVVEN | -0.603 ± 0.42

Substance | amyloid nucleation score
LCFQVVMPWNNISLSFLWLG | 0.759 ± 0.52
LCFSVNLARNLWLDNWVGGR | 6.12 ± 0.084
LCGAILIIVHYYG | 5.446 ± 0.047
LCGFTIPSNVSLGRR | 4 ± 0.11
LCILTRTYSAQA | -0.238 ± 0.49
LCISIRD | -0.111 ± 0.8
LCLTLVRPPRSCMLATL | inactive
LCMKYGVCVYVLFGWCKYTV | -0.068 ± 0.79
LCPVLYT | inactive
LCRMCIANCLMSCWESSYQV | 3.13 ± 0.17
LCRYTCSSLSVYLNNMILCG | 1.33 ± 0.13
LCSFAMKLVCNRVMAFDIES | 1.68 ± 0.19
LCSKGYIMRSAGCRVDCSGV | -0.58 ± 0.41
LCSRSYGFRFYFSSGAQSVR | 0.541 ± 0.66
LCSVQLRLMVAHNSRHLACM | 1.5 ± 0.25
LCSVWEVFLYFF | 1.84 ± 0.11
LCTIRFVNIFVCRMSKLNSH | -1.4 ± 0.62
LCVYNPNVKYVHPCWTASGG | -0.529 ± 0.44
LCWMRFLDSCEEVHKSIHVF | 0.38 ± 0.39
LDPTVPGVIANVPNRRLARS | 5.87 ± 0.061
LDSQMWNMSGQVRTRIGRSV | 0.459 ± 0.43
LEAMVTITT | 0.273 ± 0.39
LEHQSRSFMNFYTRPNKPLE | -0.519 ± 1
LERFSATYLKAWSGGVCVRV | -0.067 ± 0.65
LFASALFRMVSAFLEVAIL | 0.722 ± 0.43

Substance | amyloid nucleation score
LFCRSSC | inactive
LFECMPYGLNAKDSCADSNV | -0.303 ± 0.5
LFFIIDNSQLSSSVDGLIVE | -0.583 ± 1
LFGSKVHSSWRPSCLFTSAV | 0.377 ± 0.33
LFGVSMSKADMSFWQDSGTR | 4.77 ± 0.092
LFIEGNVSWGYACLHIRSVG | 0.039 ± 0.79
LFKEDRDRCSC | 0.99 ± 0.49
LFLGYMSLCVVYVLAFGRFE | 3.79 ± 0.043
LFLHVSGNAYGNNCRLSGPL | 0.369 ± 0.22
LFLRLVNQMVLLIKEWNVWG | 0.196 ± 0.3
LFMACLIGIFFHVETTRCRW | 2.5 ± 0.13
LFNGTMY | inactive
LFNSAVLK | -0.092 ± 0.33
LFPSLMAVNVQRSDTGPSHG | 1.2 ± 0.45
LFQLGASTR | 0.147 ± 0.76
LFWELEM | 4.7 ± 0.091
LFYSTPDRCKRVDVSGISLM | -0.325 ± 0.76
LGCNDSWEWDFVTPNGTFPF | -0.445 ± 0.48
LGFAMWFTPRFCFTVYNSYD | -0.422 ± 1
LGHAISAHVMIIICWKDVFL | 5.08 ± 0.077
LGHFSFD | inactive
LGIIQTVCRHGLQFMCVSRG | -0.122 ± 0.49
LGLTYGHHWY | 3.12 ± 0.071
LGMRLFRNVCYGLPSRSNRR | 1.64 ± 0.41
LGPGLDLSIINYEWIIF | -0.202 ± 0.79

Substance | amyloid nucleation score
LGPLVMVFCVRIPYTTMVAW | -1.25 ± 0.45
LGPMTLATTLFNCKDRHVSP | 0.438 ± 0.29
LGRCSALGYIRISCTMKGAG | 0.21 ± 0.74
LGRIHYNLFYVYV | 2.27 ± 0.14
LGRKR | -0.725 ± 0.76
LGSNEPL | -0.337 ± 0.63
LGWASYVYGCGRRGGSCRGW | 1.87 ± 0.12
LGYKVSK | 2.63 ± 0.19
LGYMVVK | -1.35 ± 0.75
LHAHYWCRVSKEPCCWCKMG | 1.02 ± 0.49
LHCLAISFNNFSLMVLYAGN | -0.187 ± 0.54
LHHYAFFSHM | inactive
LHIFSSWTRW | -0.451 ± 0.76
LHIGKFNVNLFN | 4.32 ± 0.045
LHIYTKVHRSR | 3.59 ± 0.13
LHRTLSRRTEVR | 3.54 ± 0.086
LHSCLMCRTSMWSVSIWLKL | -0.049 ± 0.74
LIAQMM | -1.22 ± 0.48
LICLSMSQCMDCNLGNSWWV | inactive
LIERDNTWRATSRCITIESG | 1.17 ± 0.45
LIFCGECTILNTGGGNRAWV | 8.361 ± 0.03
LIFRFLGLVMLFQ | inactive
LIFRVFFALTVGIRRIMHML | 5.83 ± 0.059
LIGGLVSPISRYEVGWQDAV | -0.213 ± 0.62
LIGYI | 1.96 ± 0.11

Substance | amyloid nucleation score
LIIDQVIMNGINVPYTYLIY | 4.15 ± 0.056
LILNLVFFVIPDTVFYTSGL | 6.732 ± 0.058
LINEFNAKNQSVRIFPVSEK | -0.645 ± 0.64
LINMLGWVRFY | 0.623 ± 0.44
LIPIRALRHYFRFIVCV | -0.142 ± 0.61
LISRL | -0.54 ± 1.1
LIVTLSDRWWEKGASLVESG | 0.699 ± 0.15
LIYRCN | -0.673 ± 1
LIYVATMWGNHSFYDLWDMQ | 0.112 ± 0.21
LKCPALRSSSPNDLFVP | 0.626 ± 0.65
LKGCQDLLLVDSGGSTTWYG | -0.836 ± 0.63
LKIQEPNRYW | -0.945 ± 0.76
LKIYLCIPHRRL | 0.082 ± 1.1
LKLCLRCSNIVLPD | -0.434 ± 0.3
LKLRSVKSFDFVWMIVAAEV | 0.482 ± 0.26
LKWDASKAWILRCQCFRELW | -0.678 ± 0.76
LKYVLARCFRKCWYVLWTSA | -0.451 ± 0.54
LKYVVTVHIMFMLSSWSQGC | -0.814 ± 0.79
LLCCMWFDRWLWTGLAWITV | 0.247 ± 0.24
LLCRTCFRVQYAYDNLVMFL | inactive
LLEAQSISCYRRGVYLLGQL | 3.32 ± 0.067
LLEFTLLTISQRPYTWNTVE | 0.862 ± 0.17
LLFARK | -0.038 ± 1.1
LLFLRYVVYFGNLDCLGLYM | -1.44 ± 1
LLFPQANMKDRSSPGVDWAQ | 2.72 ± 0.068

Substance | amyloid nucleation score
LLGMVNTQLKGNHSYTYKSG | -1.14 ± 0.55
LLHIFLYGLSLILWWSHRTR | 7.06 ± 0.079
LLIREMEHLFVEAKVENLRE | 0.531 ± 0.33
LLKGVASVQSTDAVRHMWSS | 0.252 ± 0.8
LLLTLCSDHMLNGNVVGHDW | 4.05 ± 0.049
LLPRDALFPPIFVIISECVF | -0.063 ± 0.45
LLSVCFSRARC | 1.07 ± 0.23
LLTCTYMQF | -0.124 ± 0.54
LLTGVISGYQIRWGTTSLNG | 2.49 ± 0.1
LLTMGVGRVGAWEQN | 0.801 ± 0.82
LLVGLIASPPGGTGVTLFPT | 4.15 ± 0.049
LLWQTYIPNAGENAVSSQLF | -0.87 ± 1
LMAKVRLRVGLGHWLDVWG | 2.93 ± 0.12
LMGKGMSTLGDDGVFSRG | -0.378 ± 0.49
LMINGRLRDITMDATVYCNS | 0.764 ± 0.2
LMVSRFVF | -0.206 ± 0.76
LNCTYN | -0.311 ± 0.79
LNEVFDLVPSYCKFSVVRGL | -1.14 ± 0.64
LNFFNDR | inactive
LNIHLFSVTGLCDEC | -0.344 ± 0.76
LNIQFGGSLHWKSGGVATEA | 0.103 ± 0.28
LNKNRHGVGIFGIIKYKDMT | inactive
LNKQRSCFNVMGGWRKIYPS | 0.783 ± 0.13
LNLSWVCSLGRYFVGGYISF | -1.29 ± 0.63
LNMVFW | inactive

Substance | amyloid nucleation score
LNNIFDLQYWQLWMSRQVKS | 0.809 ± 0.14
LNNLLS | 0.315 ± 0.46
LNNNGASNGFTTYSALNVG | -0.59 ± 0.28
LNRFGSSNSLITKFC | -1.58 ± 1
LNVMFCNVVNGFYYMDSFVC | 6.838 ± 0.044
LNWGSNIQAGVHTSRPWGSY | 0.248 ± 0.43
LNYRH | inactive
LNYTRCQGSTKVDHSLGNLM | -0.482 ± 0.31
LPHESFNQHGKLFMAD | 0.054 ± 0.46
LPKREPGDKGTLLYYDQELS | 0.167 ± 0.53
LPQMNMGFLGSLNFEGMKRA | 1.47 ± 0.2
LPVGPLVRDNTWHRRVQRWL | 1.11 ± 0.29
LPVHANNGVNMFILIVPPGS | 5.948 ± 0.051
LQCIGNYSDWGSMVGREQSK | -0.066 ± 1
LQDYCACNGVSCCIVYCKSF | 8.693 ± 0.053
LQLASNVHEHKQNGLSHRIN | 0.439 ± 0.5
LRAWDYRISNSHTRLDIDFT | inactive
LRFRGV | 0.339 ± 0.28
LRGSFNLVSYFTQLRSCDYF | -1.27 ± 0.78
LRGYVY | 0.228 ± 1
LRIGRYQN | inactive
LRPDSNWTGVESLFR | -0.66 ± 0.55
LRPDYLERYFWLWHSTDKLF | -1.14 ± 0.49
